# Test results: patent US20260077071A1, “Targeted Delivery of Theranostic Agents” (Peter MacCallum Cancer Institute, priority 2022, published 2026)
# Square brackets hold non-standard residues; d marks the D form. Peptide text beside a SMILES is read from it. * marks the point of attachment. DOTA = O=C(O)CN1CCN(CC(=O)O)CCN(CC(=O)*)CCN(CC(=O)O)CC1; NMe1Nal = CN[C@@H](Cc1cccc2ccccc12)C(=O)O; 1Nal = N[C@@H](Cc1cccc2ccccc12)C(=O)O; NMeF = CN[C@@H](Cc1ccccc1)C(=O)O; NMeNle = CCCC[C@H](NC)C(=O)O; Sar = CNCC(=O)O
# What was measured:
# in vitro = in vitro ADME, mouse; conditions: for remaining at 1.5 h: mouse, pH 7.3
# Method: Drug detoxification, drug metabolism and metabolic stability are important determinants of the efficacy of theranostic candidates in clinical settings. To assess metabolic stability, radiolabelled Compounds [^68Ga]Ga-1-4 and comparative example-2 ([^68Ga]Ga-Cmp ex-2) were challenged by incubation in either human serum, mouse liver or kidney homogenates and HEPES buffer as a negative control. Duplicate samples (750-900 pmol/mL) were incubated at 37° C. with pooled human serum, 15% mouse kidney homogenate, 30% mouse liver homogenate or 20 mM HEPES, pH 7.3 (control). Human blood was collected and serum prepared using SSTII advance vacutainer tubes according to the manufacturer's instructions (Becton Dickinson, New Jersey, USA). Mouse kidney and liver homogenates were prepared by washing the tissues in ice-cold HEPES buffer, pH 7.3 and placing them in pre-chilled tubes containing HEPES buffer and 2.38 mm metal beads (Mo-Bio Laboratories, Hilden, Germany). Tissues were homogenised using the PowerLyzer24 homogeniser (Qiagen, Hilden, Germany) according to the manufacturer's instructions. Ga-68 radiolabelled peptides were incubated with the various lysates at 37° C. and samples were collected at 15, 30, 60 and 90 min. Reactions were terminated by addition of an equal volume of acetonitrile and centrifugation for 2 min at 15,000 rpm. Supernatants were diluted in water before being analysed by HPLC using a Kinetex C18 XB column (5 μm 4.6×150 mm), eluted at 1.5 mL/min of gradient 20-60% MeCN in water containing 0.1% formic acid over 7 min.
# [1] = LogD7.4 determination (PBS pH 7.4 / n-octanol); type: physicochemical; conditions: PBS/Octanol mix, n = 5
# Method: The distribution coefficients (LogD7.4) of radiolabelled compounds [^68Ga]Ga-1-4, and [^68Ga]Ga-Cmp ex-2 were assayed by measuring radioactivity distribution in the aqueous phase (phosphate buffer pH7.4) and the organic phase (n-octanol). To determine the distribution coefficient (LogD), Ga-68 radiolabelled compounds were diluted to 20 pmol/mL in PBS (pH 7.4) and an equal volume of n-octanol was added. The mixture was vortexed vigorously for 10 cycles of 1 min at room temperature before being centrifuged for 6 min to separate the two phases. Equal volumes from each phase were aliquoted into individual counting tubes and analysed for 1 min using the Perkin Elmer 2480 Wizard2™ gamma counter (PerkinElmer, Massachusetts, USA). The distribution coefficient was calculated using the following equation [formula]
# [2] = biological target: T1, human full-length CCK-2 receptor (Homo sapiens, UniProt P32239); assay: Competitive ligand binding against [^177Lu]Lu-DOTA-CP04 in A431-CCK-2R cells; conditions: ^natGa chelated DOTA-compounds based on Peptide C (Table 5); read-out: IC50
# T1 construct: stably transfected to over-express the human full-length CCK-2 receptor (A431-CCK-2R); expressed in transfected cells
# T1 sequence (P32239 1-447): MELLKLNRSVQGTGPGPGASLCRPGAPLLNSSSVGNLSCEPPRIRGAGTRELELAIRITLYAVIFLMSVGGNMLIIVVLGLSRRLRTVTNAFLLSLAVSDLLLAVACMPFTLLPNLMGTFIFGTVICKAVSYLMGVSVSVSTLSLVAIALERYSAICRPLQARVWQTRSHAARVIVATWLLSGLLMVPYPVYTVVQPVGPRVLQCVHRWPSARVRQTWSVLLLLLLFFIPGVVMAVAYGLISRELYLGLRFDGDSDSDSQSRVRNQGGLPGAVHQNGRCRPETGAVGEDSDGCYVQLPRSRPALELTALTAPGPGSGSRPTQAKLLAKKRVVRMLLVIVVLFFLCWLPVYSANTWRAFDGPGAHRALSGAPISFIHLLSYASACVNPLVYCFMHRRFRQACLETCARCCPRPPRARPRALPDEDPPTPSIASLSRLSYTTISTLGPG
# Method: CCK-2 receptor binding experiments were conducted using A431 (human epidermoid carcinoma) cells stably transfected to over-express the human full-length CCK-2 receptor (A431-CCK-2R). As a negative control, A431 cells stably transfected with an empty vector were analysed simultaneously (A431-EV). A431 cells were maintained in DMEM (Gibco, Australia) media supplemented with 10% foetal calf serum and 250 μg/mL G418 as described previously (Aloj L, et al., J Nucl Med., 2004, Mar; 45(3), 485-94). The affinity of peptides for the CCK-2R was evaluated using competitive binding assays against [^177Lu]Lu-DOTA-CP04 in A431-CCK-2R cells. Briefly, 48 h before the experiment cells were plated at a density of 650,000 cells per well in 6 well plates. On the day of the experiment the peptides were diluted in DMEM supplemented with 1% foetal calf serum to at least 7 different concentrations (0-400 nM) and approximately 50,000 cpm of [^177Lu]Lu-DOTA-CP04 was added to each dilution. Cells were washed twice in ice-cold binding buffer (DMEM supplemented with 1% foetal calf serum) and resuspended in 1.5 mL of the pre-prepared compound mix before being incubated at 37° C. for 1 h. Post-incubation the media was removed and kept for analysis (unbound fraction) and the cells were washed twice in ice-cold binding buffer, which was pooled with the unbound fraction. Finally, 1 M NaOH was added to the cells and allowed to incubate for 5 min before lysates were collected (bound fraction). A small volume of lysate was kept aside to determine protein concentration using the Pierce® BCA protein assay kit (Thermo Fisher, Australia). All samples were analysed using the Perkin Elmer 2480 Wizard2™ gamma counter (PerkinElmer, Massachusetts, USA) and were normalised according to protein concentration. Half-maximal inhibitory concentrations (IC50) were determined using nonlinear regression calculated using GraphPad Prism Software (GraphPad Software, California, USA).
# The compounds were evaluated for their ability to disrupt the binding between CCK-2 receptor (CCK-2R) and [^177Lu]Lu-DOTA-CP04 using the methodology described above and compared to comparative example-2 (FIG. 2; Table 5).
SMILES,remaining at 1.5 h (in vitro; tissue homogenate),LogD7.4 [1],metabolism in kidney homogenates (in vitro),metabolism in liver homogenates (in vitro),remaining at 1.5 h (in vitro; other tissue homogenate),IC50 [2]
CCCC[C@@H](C(=O)N[C@@H](CC(=O)O)C(=O)N(C)[C@@H](Cc1cccc2ccccc12)C(N)=O)N(C)C(=O)[C@H](Cc1c[nH]c2ccccc12)NC(=O)CN(C)C(=O)[C@H](Cc1ccc(O)cc1)NC(=O)[C@H](C)NC(=O)[C@@H](CCC(=O)O)NC(=O)[C@@H](CCC(=O)O)NC(=O)[C@@H](CCC(=O)O)NC(=O)[C@@H](C)NC(=O)[C@@H](CCC(=O)O)NC(=O)[C@@H](CCC(=O)O)NC(=O)CN1CCN(CC(=O)O)CCN(CC(=O)O)CCN(CC(=O)O)CC1 [Compound 4] ({DOTA}-[dE][dE][dA][dE][dE][dE]AY[Sar]W[NMeNle]D[NMe1Nal]-NH2),100%,–,–,–,–,–
"CCCC[C@@H](C(=O)N[C@@H](CC(=O)O)C(=O)N[C@@H](Cc1cccc2ccccc12)C(N)=O)N(C)C(=O)[C@H](Cc1c[nH]c2ccccc12)NC(=O)CN(C)C(=O)[C@H](Cc1ccc(O)cc1)NC(=O)[C@H](C)NC(=O)[C@@H](CCC(=O)O)NC(=O)[C@@H](CCC(=O)O)NC(=O)[C@@H](CCC(=O)O)NC(=O)[C@@H](C)NC(=O)[C@@H](CCC(=O)O)NC(=O)[C@@H](CCC(=O)O)NC(=O)CN1CCN(CC(=O)O)CCN(CC(=O)O)CCN(CC(=O)O)CC1 [[^68Ga]Ga-1, metal not drawn] ({DOTA}-[dE][dE][dA][dE][dE][dE]AY[Sar]W[NMeNle]D[1Nal]-NH2)",85%,−2.88 ± 0.09,significant metabolism,significant metabolism,75%,–
"CCCC[C@@H](C(=O)N[C@@H](CC(=O)O)C(=O)N(C)[C@@H](Cc1ccccc1)C(N)=O)N(C)C(=O)[C@H](Cc1c[nH]c2ccccc12)NC(=O)CN(C)C(=O)[C@H](Cc1ccc(O)cc1)NC(=O)[C@H](C)NC(=O)[C@@H](CCC(=O)O)NC(=O)[C@@H](CCC(=O)O)NC(=O)[C@@H](CCC(=O)O)NC(=O)[C@@H](C)NC(=O)[C@@H](CCC(=O)O)NC(=O)[C@@H](CCC(=O)O)NC(=O)CN1CCN(CC(=O)O)CCN(CC(=O)O)CCN(CC(=O)O)CC1 [[^68Ga]Ga-2, metal not drawn] ({DOTA}-[dE][dE][dA][dE][dE][dE]AY[Sar]W[NMeNle]D[NMeF]-NH2)",–,−3.56 ± 0.01,no observable metabolites detected,no observable metabolites detected,–,–
"CCCC[C@@H](C(=O)N[C@@H](CC(=O)O)C(=O)N[C@@H](Cc1ccccc1)C(N)=O)N(C)C(=O)[C@H](Cc1c[nH]c2ccccc12)NC(=O)CN(C)C(=O)[C@H](Cc1ccc(O)cc1)NC(=O)[C@H](C)NC(=O)[C@@H](CCC(=O)O)NC(=O)[C@@H](CCC(=O)O)NC(=O)[C@@H](CCC(=O)O)NC(=O)[C@@H](C)NC(=O)[C@@H](CCC(=O)O)NC(=O)[C@@H](CCC(=O)O)NC(=O)CN1CCN(CC(=O)O)CCN(CC(=O)O)CCN(CC(=O)O)CC1 [[^68Ga]Ga-3, metal not drawn] ({DOTA}-[dE][dE][dA][dE][dE][dE]AY[Sar]W[NMeNle]DF-NH2)",~35%,−4.06 ± 0.14,significant metabolism,significant metabolism,20%,–
"CCCC[C@@H](C(=O)N[C@@H](CC(=O)O)C(=O)N[C@@H](Cc1ccccc1)C(N)=O)N(C)C(=O)[C@H](Cc1c[nH]c2ccccc12)NC(=O)CN(C)C(=O)[C@H](Cc1ccc(O)cc1)NC(=O)[C@H](C)NC(=O)[C@@H](CCC(=O)O)NC(=O)[C@@H](CCC(=O)O)NC(=O)[C@@H](CCC(=O)O)NC(=O)[C@@H](C)NC(=O)[C@@H](CCC(=O)O)NC(=O)[C@@H](CCC(=O)O)NC(=O)CN1CCN(CC(=O)O)CCN(CC(=O)O)CCN(CC(=O)O)CC1 [^natGa-3, metal not drawn] ({DOTA}-[dE][dE][dA][dE][dE][dE]AY[Sar]W[NMeNle]DF-NH2)",–,–,–,–,–,42 pM
"CCCC[C@@H](C(=O)N[C@@H](CC(=O)O)C(=O)N(C)[C@@H](Cc1cccc2ccccc12)C(N)=O)N(C)C(=O)[C@H](Cc1c[nH]c2ccccc12)NC(=O)CN(C)C(=O)[C@H](Cc1ccc(O)cc1)NC(=O)[C@H](C)NC(=O)[C@@H](CCC(=O)O)NC(=O)[C@@H](CCC(=O)O)NC(=O)[C@@H](CCC(=O)O)NC(=O)[C@@H](C)NC(=O)[C@@H](CCC(=O)O)NC(=O)[C@@H](CCC(=O)O)NC(=O)CN1CCN(CC(=O)O)CCN(CC(=O)O)CCN(CC(=O)O)CC1 [^natGa-4, metal not drawn] ({DOTA}-[dE][dE][dA][dE][dE][dE]AY[Sar]W[NMeNle]D[NMe1Nal]-NH2)",–,–,–,–,–,96 pM
"CCCC[C@@H](C(=O)N[C@@H](CC(=O)O)C(=O)N(C)[C@@H](Cc1cccc2ccccc12)C(N)=O)N(C)C(=O)[C@H](Cc1c[nH]c2ccccc12)NC(=O)CN(C)C(=O)[C@H](Cc1ccc(O)cc1)NC(=O)[C@H](C)NC(=O)[C@@H](CCC(=O)O)NC(=O)[C@@H](CCC(=O)O)NC(=O)[C@@H](CCC(=O)O)NC(=O)[C@@H](CCC(=O)O)NC(=O)[C@@H](CCC(=O)O)NC(=O)[C@@H](CCC(=O)O)NC(=O)CN1CCN(CC(=O)O)CCN(CC(=O)O)CCN(CC(=O)O)CC1 [^natGa-Cmp ex-2, metal not drawn, reference compound] ({DOTA}-[dE][dE][dE][dE][dE][dE]AY[Sar]W[NMeNle]D[NMe1Nal]-NH2)",–,–,–,–,–,158 pM
